Reference: the supplement of paper PMC7877785
± gives the uncertainty stated by the source.

Assay: self-splicing fitness, log relative to wild type (ln ratio); higher = more splicing; Tetrahymena group I intron in knt gene, E. coli kanamycin selection, DiMSum; sequences stand for … in CUCUCU…GGAGGGAAAAGUUAUCAGGCAUGCACCUGGUAGCUAGUCUUUAAACCAAUAGAUUGCAUCGGUUUAAAAGGCAAGACCGUCAAAUUGCGGGAAAGGGGUCAACAGCCGUUCAGUACCAAGUCUCAGGGGAAACUUUGAGAUGGCCUUGCAAAGGGUAUGGUAAUAAGCUGACGGACAUGGUCCUAACCACGCAGCCAAGUCCUAAGUCAACAGAUCUUCUGUUGAUAUGGAUGCAGUUCACAGACUAAAUGUCGGUCGGGGAAGAUGUAUUCUUCUCAUAAGAUAUAGUCGGACCUCUCCUUAAUGGGAGCUAGCGGAUGAAGUGAUGCAACACUGGAGCCGCUGGGAACUAAUUUGUAUGCGAAAGUAUAUUGAUUAGUUUUGGAGUACUCGUGGUCG
Summary of the method: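 Six replicate transformations of E. coli BL21(DE3) with a pET-22b(+) library were grown overnight at 37°C or 30°C. The library randomised all eight P1ex-region intron nucleotides, the intron lying in the knt kanamycin-resistance gene, and plates were LB agar with or without 25 μg/mL kanamycin plus 100 μg/mL carbenicillin, 50 μM IPTG and 0.2% rhamnose. Pooled colonies were amplicon-sequenced on an Illumina HiSeq 2500, and fitness is the DiMSum error-weighted combination of wild-type-normalised replicate fold changes, kanamycin versus none.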

| Sequence | self-splicing fitness (ln) (30 °C) | self-splicing fitness (ln) (37 °C) |
| --- | --- | --- |
| UCGGAGCAAUAUUACGAGCC | -2.93 ± 0.41 |  |
| CUAAAGCAAUAUUACGAUAU | -3.84 ± 0.19 | -3.13 ± 0.18 |
| CGCCAGCAAUAUUACGGUGC | -3.5 ± 0.17 | -3.07 ± 0.3 |
| CACGAGCAAUAUUACGUGUA | -3.1 ± 0.21 | -2.88 ± 0.2 |
| AGUCAGCAAUAUUACGGGCC | -2.98 ± 0.28 | -2.4 ± 0.35 |
| UACUAGCAAUAUUACGCAAU | -3.82 ± 0.23 | -1.63 ± 0.16 |
| GCUCAGCAAUAUUACGGUCC | -0.681 ± 0.065 | 0.158 ± 0.087 |
| ACGCAGCAAUAUUACGGGUA | -2.46 ± 0.11 | -1.37 ± 0.087 |
| AUAAAGCAAUAUUACGUCCU | 0.13 ± 0.054 | 0.82 ± 0.079 |
| GGUCAGCAAUAUUACGAUAG | -1.37 ± 0.077 | 0.0315 ± 0.1 |
| AAGUAGCAAUAUUACGUGGA | -3.83 ± 0.26 | -2.14 ± 0.16 |
| AGUCAGCAAUAUUACGGUGU | -1.32 ± 0.075 | -0.39 ± 0.1 |
| ACGGAGCAAUAUUACGUCGC | -2.93 ± 0.24 | -1.42 ± 0.18 |
| GUUCAGCAAUAUUACGGCCU | -1.02 ± 0.2 | -0.57 ± 0.24 |
| GUAGAGCAAUAUUACGCGAG | -1.69 ± 0.14 | -0.548 ± 0.14 |
| ACAGAGCAAUAUUACGGACG | -3.09 ± 0.17 | -0.53 ± 0.33 |
| GGUCAGCAAUAUUACGGCAU | -0.469 ± 0.073 | 0.642 ± 0.1 |
| UAGAAGCAAUAUUACGGGUG | -0.989 ± 0.057 | -0.365 ± 0.078 |
| CUUAAGCAAUAUUACGCUAA | -3.21 ± 0.39 | -1.58 ± 0.3 |

| Sequence | self-splicing fitness (ln) (30 °C) | self-splicing fitness (ln) (37 °C) |
| --- | --- | --- |
| GGGAAGCAAUAUUACGAGAU | -2.81 ± 0.25 | -2.8 ± 0.38 |
| UCGUAGCAAUAUUACGUGAA | -2.73 ± 0.16 | -1.8 ± 0.17 |
| GUUUAGCAAUAUUACGUGGU |  | -1.23 ± 0.44 |
| AUUUAGCAAUAUUACGGGUG | -3.24 ± 0.14 | -1.57 ± 0.14 |
| ACUAAGCAAUAUUACGUCGA | -1.04 ± 0.13 | -1.45 ± 0.12 |
| CCCAAGCAAUAUUACGCGGU | -3.41 ± 0.12 | -1.77 ± 0.12 |
| UAGUAGCAAUAUUACGUGCU | -1.79 ± 0.11 | -0.826 ± 0.12 |
| GCAUAGCAAUAUUACGGUGU | -4.14 ± 0.23 | -2.47 ± 0.2 |
| UAGCAGCAAUAUUACGUGUU | -3.4 ± 0.1 | -2.86 ± 0.15 |
| GUCUAGCAAUAUUACGGUGG | -2.87 ± 0.17 | -3.96 ± 0.46 |
| AAUGAGCAAUAUUACGCUUG | -3.09 ± 0.17 | -2.11 ± 0.18 |
| UUUAAGCAAUAUUACGACAU | -1.45 ± 0.015 | -0.621 ± 0.034 |
| CCGCAGCAAUAUUACGAUCA | -2.72 ± 0.22 | -1.85 ± 0.27 |
| GUAAAGCAAUAUUACGCUUC | -3.5 ± 0.23 | -1.97 ± 0.23 |
| UUUCAGCAAUAUUACGCAAU | -2.36 ± 0.21 | -0.692 ± 0.23 |
| UAUCAGCAAUAUUACGUUCU | -2.22 ± 0.11 | -1.03 ± 0.13 |
| AAGCAGCAAUAUUACGCGGU | -3.08 ± 0.17 | -2.55 ± 0.23 |
| UAGCAGCAAUAUUACGGGCU | -3.39 ± 0.15 | -1.08 ± 0.12 |
| GUGUAGCAAUAUUACGCAUG | -2.88 ± 0.27 | -2.67 ± 0.41 |
